How the values were obtained:
[1] = target: Flag-AR 4CG (C125, 290, 327, 406G) (human) (UniProt P10275); test: co-IP; AR IP from PC3M/HA-Parp7 cells stably expressing Flag-tagged WT AR or Cys-to-Gly mutants, treated +R1881; probed for AR, ADP-ribosylation, Dtx3L and Parp9
Parp7 = target: T1, Parp7 (Homo sapiens, UniProt Q7Z3E1); test: in vitro ADP-ribosylation of AR and automodification with recombinant Parp7 and NAD+; assay type: biochemical
T1 construct: gene TIPARP; N-terminal His6-T7-tagged Parp7 expressed in Sf21 insect cells
T1 sequence (Q7Z3E1 1-657): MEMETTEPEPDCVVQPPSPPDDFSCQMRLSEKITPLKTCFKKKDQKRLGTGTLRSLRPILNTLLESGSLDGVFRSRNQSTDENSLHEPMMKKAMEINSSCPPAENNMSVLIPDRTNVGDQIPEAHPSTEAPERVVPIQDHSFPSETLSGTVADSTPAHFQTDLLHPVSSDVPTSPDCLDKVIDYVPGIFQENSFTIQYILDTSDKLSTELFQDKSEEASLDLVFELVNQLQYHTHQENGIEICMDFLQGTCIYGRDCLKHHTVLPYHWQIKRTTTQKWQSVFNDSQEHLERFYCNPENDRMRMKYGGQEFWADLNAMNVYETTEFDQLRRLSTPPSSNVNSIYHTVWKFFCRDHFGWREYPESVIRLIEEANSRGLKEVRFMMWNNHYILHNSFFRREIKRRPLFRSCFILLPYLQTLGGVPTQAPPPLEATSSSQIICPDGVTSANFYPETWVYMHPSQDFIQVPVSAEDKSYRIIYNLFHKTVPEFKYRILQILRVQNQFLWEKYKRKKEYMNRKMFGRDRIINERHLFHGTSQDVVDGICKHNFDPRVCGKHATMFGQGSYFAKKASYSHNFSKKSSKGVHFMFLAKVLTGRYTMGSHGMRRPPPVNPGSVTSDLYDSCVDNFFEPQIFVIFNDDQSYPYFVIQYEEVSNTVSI

Flag-AR 4CG (C125, 290, 327, 406G) (human), sequence (P10275 whole entry C125G/C290G/C327G/C406G): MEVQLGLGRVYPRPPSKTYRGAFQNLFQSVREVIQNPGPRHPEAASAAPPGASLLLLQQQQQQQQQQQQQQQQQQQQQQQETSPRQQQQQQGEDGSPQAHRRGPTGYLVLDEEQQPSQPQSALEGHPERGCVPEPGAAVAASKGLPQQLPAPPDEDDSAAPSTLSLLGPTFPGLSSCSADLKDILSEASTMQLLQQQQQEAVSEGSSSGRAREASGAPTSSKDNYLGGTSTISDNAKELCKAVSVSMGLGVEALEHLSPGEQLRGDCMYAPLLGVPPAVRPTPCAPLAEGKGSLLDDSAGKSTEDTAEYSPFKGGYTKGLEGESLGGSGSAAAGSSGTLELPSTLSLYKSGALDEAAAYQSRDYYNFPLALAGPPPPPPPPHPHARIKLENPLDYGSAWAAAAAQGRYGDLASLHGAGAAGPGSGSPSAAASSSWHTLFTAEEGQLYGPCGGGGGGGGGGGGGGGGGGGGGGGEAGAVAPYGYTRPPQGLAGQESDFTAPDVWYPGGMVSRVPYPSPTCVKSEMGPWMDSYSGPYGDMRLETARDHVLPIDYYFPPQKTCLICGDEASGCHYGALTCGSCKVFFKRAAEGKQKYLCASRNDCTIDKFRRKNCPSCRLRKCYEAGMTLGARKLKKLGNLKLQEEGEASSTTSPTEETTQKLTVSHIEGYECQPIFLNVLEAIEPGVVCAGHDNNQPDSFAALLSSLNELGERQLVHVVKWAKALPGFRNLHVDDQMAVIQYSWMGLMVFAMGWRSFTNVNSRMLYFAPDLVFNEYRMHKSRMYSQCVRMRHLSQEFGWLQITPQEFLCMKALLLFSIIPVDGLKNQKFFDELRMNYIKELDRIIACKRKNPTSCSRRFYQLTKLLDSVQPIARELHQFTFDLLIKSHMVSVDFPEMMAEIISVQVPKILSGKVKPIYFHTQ

Parp9 (enzyme) was tested, and the complex formation, percent of WT [1] was 50 % of WT.
NC(=O)c1ccc[n+]([C@@H]2O[C@H](COP(=O)([O-])OP(=O)(O)OC[C@H]3O[C@@H](n4cnc5c(N)ncnc54)[C@H](O)[C@@H]3O)[C@@H](O)[C@H]2O)c1 [NAD^+] was tested, and the “in vitro ADP-ribosylation of AR and automodification with recombinant Parp7 and” value (Parp7) was “Combining recombinant Parp7, NAD^+, and bead-immobilized AR reconstituted ADP-ribosylation”.

From PMC8113490, “Androgen signaling uses a writer and a reader of ADP-ribosylation to regulate protein complex assembly” (Nature Communications, 2021)
